This assay has as its system intracellular proteome of ENR+CD and ENR organoids. In words: LC-MS/MS TMT proteomics of ENR+CD versus ENR organoids. Particulars: for Average logFC / M1-1 Log2 Median Normalized / M1-2 Log2 Median Normalized / M2-1 Log2 Median Normalized / M2-2 Log2 Median Normalized: protein abundance, ENR+CD versus ENR organoids; for Average logFC: aggregate of the four sample pairs; for M1-1 Log2 Median Normalized: replicate M1-1; for M1-1 Log2 Median Normalized / M1-2 Log2 Median Normalized / M2-1 Log2 Median Normalized / M2-2 Log2 Median Normalized: log2 ratio; for M1-2 Log2 Median Normalized: replicate M1-2; for M2-1 Log2 Median Normalized: replicate M2-1; for M2-2 Log2 Median Normalized: replicate M2-2; for change: up = enriched in ENR+CD, down = enriched in ENR, FDR<0.05 and log fold change cut-off. The format is cell-based, C57BL/6 mice. An excerpt:
Because PCs are highly secretory, protein-rich cells, Applicants sought to assess the total intracellular proteome between conditions through liquid chromatography mass spectrometry (LC-MS/MS)-based proteomics. Applicants quantified relative protein abundance across eight samples using isobaric mass tag labeling from four ENR and four ENR+CD samples (M1-1 through M2-2, first digit denotes biological donor, second digit denotes technical replicate) (FIG. 3A). Samples were processed and analyzed in a single 10-plex by LC-MS/MS (FIG. 9A).
To affirm the reproducibility of the associated proteins in the ENR+CD-enriched proteome, Applicants performed relative quantification within differentiation sets.
Mass spectrometry proteomics sample preparation, sequencing, and quantification. Organoid cell pellets were isolated from Matrigel with mechanical dissociation and washed (cold PBS 5X) to remove residual extracellular protein. Proteins were extracted from cell pellets with 8 M urea (Sigma), reduced with 5 mM DTT (Thermo Fisher Pierce) for 45 minutes, alkylated with 10 mM IAA (Sigma) for 45 minutes in the dark, and double digested with both Lysyl Endopeptidase “LysC” (Wako) and trypsin (Promega) overnight at RT. A small aliquot of cellular lysate was removed from each sample for protein quantification via the Pierce™ BCA Protein Assay Kit (Pierce). After proteolytic digestion, the samples were quenched using formic acid to a final concentration of 1.0% and subsequently desalted on 10 mg OASIS HLB solid phase columns (Waters).
The peptides were labeled with TMT-10 isobaric mass tag reagent according to manufacturer's instructions (ThermoFisher Scientific). The peptides were labeled at a 1:8 ratio of peptide to TMT reagent, followed by 1-hour incubation at RT with bench top shaking at 850 rpm. After incubation, a […] of labeled tryptic peptide was removed from each labeled condition, desalted with C18 stage tips, and analyzed via LC-MS/MS using a Thermo Fisher Q Exactive Plus Hybrid Mass Spectrometer (QE-Plus) coupled to a Thermo Fisher EASY-nLC 1000 liquid chromatograph to ensure isobaric label incorporation >95%. An additional 1.0 μg of labeled tryptic peptide was removed from each channel, mixed together, desalted on a C18 stage tip, and analyzed via LC-MS to ensure equal relative protein loads. During these quality control steps, the labeled peptides were stored, unquenched at −80° C.

B1: P02772 (protein, UniProt P02772 1-605, looked up)
chain: MKWITPASLILLLHFAASKALHENEFGIASTLDSSQCVTEKNVLSIATITFTQFVPEATEEEVNKMTSDVLAAMKKNSGDGCLESQLSVFLDEICHETELSNKYGLSGCCSQSGVERHQCLLARKKTAPASVPPFQFPEPAESCKAHEENRAVFMNRFIYEVSRRNPFMYAPAILSLAAQYDKVVLACCKADNKEECFQTKRASIAKELREGSMLNEHVCSVIRKFGSRNLQATTIIKLSQKLTEANFTEIQKLALDVAHIHEECCQGNSLECLQDGEKVMTYICSQQNILSSKIAECCKLPMIQLGFCIIHAENGVKPEGLSLNPSQFLGDRNFAQFSSEEKIMFMASFLHEYSRTHPNLPVSVILRIAKTYQEILEKCSQSGNLPGCQDNLEEELQKHIEESQALSKQSCALYQTLGDYKLQNLFLIGYTRKAPQLTSAELIDLTGKMVSIASTCCQLSEEKWSGCGEGMADIFIGHLCIRNEASPVNSGISHCCNSSYSNRRLCITSFLRDETYAPPPFSEDKFIFHKDLCQAQGKALQTMKQELLINLVKQKPELTEEQLAAVTADFSGLLEKCCKAQDQEVCFTEEGPKLISKTRDALGV
modifications: full-length
As for B1, the “Average logFC” value was −1.438, the “M1-1 Log2 Median Normalized” value was −1.616, the “M1-2 Log2 Median Normalized” value is given as −1.696 and the “M2-1 Log2 Median Normalized” value is −1.1235. The “M2-2 Log2 Median Normalized” value is given as −1.316 and the change result is “down”.

B2: P03958 (protein, UniProt P03958 1-352, looked up)
chain: MAQTPAFNKPKVELHVHLDGAIKPETILYFGKKRGIALPADTVEELRNIIGMDKPLSLPGFLAKFDYYMPVIAGCREAIKRIAYEFVEMKAKEGVVYVEVRYSPHLLANSKVDPMPWNQTEGDVTPDDVVDLVNQGLQEGEQAFGIKVRSILCCMRHQPSWSLEVLELCKKYNQKTVVAMDLAGDETIEGSSLFPGHVEAYEGAVKNGIHRTVHAGEVGSPEVVREAVDILKTERVGHGYHTIEDEALYNRLLKENMHFEVCPWSSYLTGAWDPKTTHAVVRFKNDKANYSLNTDDPLIFKSTLDTDYQMTKKDMGFTEEEFKRLNINAAKSSFLPEEEKKELLERLYREYQ
modifications: full-length
Regarding B2, the “Average logFC” value worked out at 1.34, the “M1-1 Log2 Median Normalized” value is listed as 1.339, the “M1-2 Log2 Median Normalized” value was 0.074 and the “M2-1 Log2 Median Normalized” value is on record as 1.5985. Further, the “M2-2 Log2 Median Normalized” value was found to be 1.501 and the change result is listed as “up”.

B3: O88803 (protein, UniProt O88803 1-151, looked up)
chain: MIPTTILISAALLSSALAGPWANICASKSSNEIRTCDSYGCGQYSAQRTQRHHPGVDVLCSDGSVVYAPFTGKIVGQEKPYRNKNAINDGIRLSGRGFCVKIFYIKPIKYKGSIKKGEKLGTLLPLQKIYPGIQSHVHVENCDSSDPTAYL
modifications: full-length
With B3, the “Average logFC” value was determined as 1.443, the “M1-1 Log2 Median Normalized” value worked out at 1.692, the “M1-2 Log2 Median Normalized” value amounted to 1.063 and the “M2-1 Log2 Median Normalized” value was determined as 1.4425. Moreover, the “M2-2 Log2 Median Normalized” value stood at 1.463 and the change result is given as “up”.

B4: P06728 (protein, UniProt P06728 1-395, looked up)
chain: MFLKAAVLTLALVAITGTRAEVTSDQVANVVWDYFTQLSNNAKEAVEQFQKTDVTQQLSTLFQDKLGDASTYADGVHNKLVPFVVQLSGHLAQETERVKEEIKKELEDLRDRMMPHANKVTQTFGENMQKLQEHLKPYAVDLQDQINTQTQEMKLQLTPYIQRMQTTIKENVDNLHTSMMPLATNLKDKFNRNMEELKGHLTPRANELKATIDQNLEDLRRSLAPLTVGVQEKLNHQMEGLAFQMKKNAEELQTKVSAKIDQLQKNLAPLVEDVQSKVKGNTEGLQKSLEDLNRQLEQQVEEFRRTVEPMGEMFNKALVQQLEQFRQQLGPNSGEVESHLSFLEKSLREKVNSFMSTLEKKGSPDQPQALPLPEQAQEQAQEQAQEQVQPKPLES
modifications: full-length
For B4, the “Average logFC” value is recorded as −1.57, the “M1-1 Log2 Median Normalized” value was −1.343, the “M1-2 Log2 Median Normalized” value is −2.171 and the “M2-1 Log2 Median Normalized” value is reported as −1.8605. The “M2-2 Log2 Median Normalized” value is −0.907 and the change entry is reported as “down”.

B5: P04184 (protein, UniProt P04184 1-233, looked up)
chain: MSYINLPTVLPSSPSKTRGQIQVILGPMFSGKSTELMRRVRRFQIAQYKCLVIKYAKDTRYSNSFSTHDRNTMDALPACMLRDVTQESLGVAVIGIDEGQFFPDIVDFCEMMANEGKTVIVAALDGTFQRKAFGSILNLVPLAESVVKLTAVCMECFREAAYTKRLGLEKEVEVIGGADKYHSVCRLCYFKKSSAQTAGSDNKNCLVLGQPGEALVVRKLFASQQVLQYNSAN
modifications: full-length
For the molecule B5, the “Average logFC” value was −1.187, the “M1-1 Log2 Median Normalized” value is −1.268, the “M1-2 Log2 Median Normalized” value is −1.033 and the “M2-1 Log2 Median Normalized” value is on record as −1.0175. Moreover, the “M2-2 Log2 Median Normalized” value is −1.428 and the change entry is reported as “down”.

B6: P0C027 (protein, UniProt P0C027 1-164, looked up)
chain: MKCKPNQTRTYDPEGFKKRAACLCFRSEREDEVLLVSSSRYPDRWIVPGGGMEPEEEPDGAAVREVYEEAGVKGKLGRLLGVFEQNQDRKHRTYVFVLTVTELLEDWEDSVSIGRKREWFKIEDAIKVLQCHKPVHAEYLEKLKLGGSPTNGNSAAPSPPESEP
modifications: full-length
As for B6, the “Average logFC” value was found to be 1.134, the “M1-1 Log2 Median Normalized” value is reported as 1.368, the “M1-2 Log2 Median Normalized” value came out at 1.133 and the “M2-1 Log2 Median Normalized” value came out at 0.8135. Also, the “M2-2 Log2 Median Normalized” value is reported as 1.192 and the change result is “up”.

B7: O88554 (protein, UniProt O88554 1-559, looked up)
chain: MAPRRQRSGSGRRVLNEAKKVDNGNKATEDDSPPGKKMRTCQRKGPMAGGKDADRTKDNRDSVKTLLLKGKAPVDPECAAKLGKAHVYCEGDDVYDVMLNQTNLQFNNNKYYLIQLLEDDAQRNFSVWMRWGRVGKTGQHSLVTCSGDLNKAKEIFQKKFLDKTKNNWEDRENFEKVPGKYDMLQMDYAASTQDESKTKEEETLKPESQLDLRVQELLKLICNVQTMEEMMIEMKYDTKRAPLGKLTVAQIKAGYQSLKKIEDCIRAGQHGRALVEACNEFYTRIPHDFGLSIPPVIRTEKELSDKVKLLEALGDIEIALKLVKSERQGLEHPLDQHYRNLHCALRPLDHESNEFKVISQYLQSTHAPTHKDYTMTLLDVFEVEKEGEKEAFREDLPNRMLLWHGSRLSNWVGILSHGLRVAPPEAPITGYMFGKGIYFADMSSKSANYCFASRLKNTGLLLLSEVALGQCNELLEANPKAQGLLRGKHSTKGMGKMAPSPAHFITLNGSTVPLGPASDTGILNPEGYTLNYNEFIVYSPNQVRMRYLLKIQFNFLQLW
modifications: full-length
On to B7, for which the “Average logFC” value is reported as −1.403, the “M1-1 Log2 Median Normalized” value is listed as −1.403, the “M1-2 Log2 Median Normalized” value is recorded as −0.933 and the “M2-1 Log2 Median Normalized” value is recorded as −1.4925. The “M2-2 Log2 Median Normalized” value was −1.465 and the change entry is recorded as “down”.

These data come from patent US11994512B2, “Single-cell genomic methods to generate ex vivo cell systems that recapitulate in vivo biology with improved fidelity” (Massachusetts Institute of Technology, priority 2018, dated 2024).
